B1: Twister Ribozyme (parent)
chain: AACACUGCCAAUGCCGGUCCCAAGCCCGGAUAAAAGUGGAGGGGGCGG

Variants of: B1
Test: self-cleavage, relative activity (ratio to wild type); higher = more cleavage; co-transcriptional

Row | Variant | self-cleavage
1 | A4U U37C | 0.022
2 | C5A A10C | 0.722
3 | C5G A30C | 0.259
4 | A4U C20A | 0.0537
5 | U6A U12C | 1.11
6 | U6A U12G | 0.903
7 | A4U U6A | 0.0622
8 | C5A A35C | 0.655
9 | U6A A35G | 0.807
10 | U6A A35U | 0.992
11 | C5G G24A | 0.0701
12 | C5G G41U | 0.154
13 | C5G G41C | 0.114
14 | C5U G16U | 0.459
15 | C5A G36C | 0.519
16 | A4U A33G | 0.0639
17 | C5A U12G | 0.42
18 | C5A A40C | 0.129
19 | C5A A40U | 0.107
20 | C5U A30G | 0.784
21 | C5U A30U | 0.752
22 | U6A G24A | 0.116
23 | C5U C9A | 0.349
24 | C5U C9U | 0.337

Row | Variant | self-cleavage
25 | A4U A35U | 0.196
26 | A4U A35C | 0.129
27 | C5U G38A | 0.695
28 | C5U G38C | 0.581
29 | C5U G38U | 0.503
30 | C5A G28C | 0.229
31 | U6A C25G | 0.121
32 | U6A C25U | 0.718
33 | U6A C25A | 0.0712
34 | C5U G28A | 0.572
35 | C5G C27U | 0.445
36 | C5G C27A | 0.103
37 | C5U G7C | 0.0595
38 | C5U G7U | 0.0676
39 | C5U G7A | 0.147
40 | C5U G48U | 0.82
41 | C5U G48A | 0.639
42 | C5U C14U | 0.68
43 | C5U C14G | 0.0879
44 | C5U C14A | 0.673
45 | C5A G39C | 0.149
46 | C5A G39U | 0.0872
47 | C5A G39A | 0.161
48 | C5G G13U | 0.0419

Row | Variant | self-cleavage
49 | A4U G39A | 0.0691
50 | U6A C14A | 0.866
51 | U6A C14U | 0.795
52 | U6A C19A | 0.0793
53 | U6A C19G | 0.0747
54 | U6A C19U | 0.539
55 | C5G C46G | 0.915
56 | C5U G44A | 0.748
57 | C5U G44U | 0.816
58 | U6C A22G | 0.0819
59 | U6C A22C | 0.691
60 | U6C A33G | 0.429
61 | C5U A35G | 0.435
62 | U6A G36A | 0.168
63 | U6A G36C | 0.136
64 | C5U A33G | 0.631
65 | C5U A33U | 0.714
66 | C5U A33C | 0.652
67 | C5A A32C | 0.413
68 | C5A A32U | 0.454
69 | C5A A23U | 0.074
70 | C5G C26G | 0.122
71 | C5U G45C | 0.239
72 | C5U G45U | 0.423

Row | Variant | self-cleavage
73 | C5U G39C | 0.171
74 | A4U C19U | 0.0724
75 | A4U C19G | 0.092
76 | C5A C19G | 0.0385
77 | U6A C26U | 0.237
78 | C5U G43U | 0.2
79 | C5U G43C | 0.126
80 | C5A C27A | 0.0839
81 | C5A C27G | 0.0807
82 | C5G G7U | 0.0648
83 | C5G G7A | 0.111
84 | C5G C21U | 0.104
85 | C5G C21A | 0.0944
86 | C5G G36U | 0.724
87 | U6A G45A | 0.911
88 | U6A G45C | 0.254
89 | C5U U6C | 0.691
90 | U6A C20U | 0.82
91 | U6A U18C | 0.208
92 | C5A G42A | 0.132
93 | C5A G42C | 0.184
94 | C5U U18A | 0.186
95 | C5U U18G | 0.066
96 | A4U G29A | 0.173

Row | Variant | self-cleavage
97 | C5U G36C | 0.785
98 | C5U G36A | 0.852
99 | U6A G39U | 0.125
100 | A4U G13U | 0.0584
101 | A4U G13C | 0.0685
102 | U6A G48C | 0.84
103 | C5G C20A | 0.0467
104 | C5G U37C | 0.14
105 | C5G U37G | 0.519
106 | A4U C5A | 0.0794
107 | A4U U12A | 0.0897
108 | A4U U12C | 0.0758
109 | A4U U12G | 0.168
110 | C5U A40G | 0.133
111 | C5U A40C | 0.171
112 | C5G G45A | 0.475
113 | C5G G45U | 0.369
114 | A4U A30U | 0.11
115 | C5A A34U | 0.182
116 | C5A A34C | 0.119
117 | A4U G42C | 0.103
118 | A4U G42A | 0.0876
119 | A4U C25A | 0.029
120 | A4U G36C | 0.0838

Row | Variant | self-cleavage
121 | C5G A40C | 0.198
122 | C5G A40G | 0.182
123 | C5G A40U | 0.0886
124 | C5A G29U | 0.51
125 | C5A G29A | 0.362
126 | C5U A32C | 0.887
127 | C5U A32U | 0.812
128 | U6A C15A | 0.358
129 | U6A C15G | 0.0866
130 | C5G G38C | 0.219
131 | C5G G38U | 0.165
132 | A4U C26A | 0.0524
133 | C5U G24U | 0.0614
134 | C5A C20A | 0.0707
135 | C5A C20G | 0.0697
136 | C5G C9U | 0.13
137 | A4U | 0.136
138 | C5A C25A | 0.068
139 | C5A C25U | 0.236
140 | C5G A10C | 0.768
141 | C5A U18A | 0.118
142 | C5A U18G | 0.0654
143 | A4U G48C | 0.193
144 | A4U G48A | 0.191

Row | Variant | self-cleavage
145 | C5U G17A | 0.237
146 | U6A A32C | 0.753
147 | U6C A10G | 0.809
148 | C5G C19U | 0.504
149 | C5G C19G | 0.125
150 | C5G C19A | 0.0784
151 | C5G C15A | 0.251
152 | C5G C15U | 0.467
153 | A4U A32C | 0.1
154 | A4U A32U | 0.0867
155 | A4U A32G | 0.0833
156 | U6A G17U | 0.101
157 | C5G G28A | 0.354
158 | C5U C19U | 0.819
159 | C5U C19A | 0.145
160 | A4U C14U | 0.13
161 | A4U C14G | 0.0594
162 | A4U C14A | 0.225
163 | U6A C8G | 0.106
164 | A4U C27A | 0.0441
165 | U6A G13U | 0.129
166 | C5A A30C | 0.348
167 | C5A A30G | 0.491

From the RNAGym collection of RNA variant scans (doi:10.7554/elife.80360)
